In the supplement of paper PMC10567573:

B1: DUSP5 (parent)
chain: YSEYPECCVDVKPISQEKIESERA

Variants of: B1
Experiment: protein stability index of a GFP-peptide fusion (GPS, HEK-293T) (PSI 1-6); higher = more stable
Conditions: c terminus: a fixed tail appended
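Also: lentivirally expressed fusions sorted by FACS into six bins by GFP to DsRed ratio, PSI derived from sequencing read proportions per bin multiplied by bin number.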

Going from YSEYPECCVDVKPISQEPIESERA to YSEYPECCVDVKPISQEMIESERA, the protein stability index rises from 3.84 to 4.3.

Going from YSEYPECCVDVKPISQEGIESERA to YSEYPECCVDVKPISQEWIESERA, the protein stability index rises from 3.39 to 3.73.

Going from YSEYPECCVDVKPISQENIESERA to YSEYPECCVDVKPISQEQIESERA, the protein stability index rises from 4.19 to 4.87.

Going from YSEYPECCVDVKPISQETIESERA to YSEYPECCVDVKPISQEHIESERA, the protein stability index falls from 4.52 to 4.41.

Compared with YSEYPECCVDVKPISQELIESERA, YSEYPECCVDVKPISQEVIESERA is higher in protein stability index: 3.68 for the first, 4.16 for the second.

Compared with YSEYPECCVDVKPISQECIESERA, YSEYPECCVDVKPISQEAIESERA is higher in protein stability index: 3.1 for the first, 4.17 for the second.

Compared with YSEYPECCVDVKPISQEIIESERA, YSEYPECCVDVKPISQEEIESERA is higher in protein stability index: 4.02 for the first, 4.55 for the second.

Compared with YSEYPECCVDVKPISQESIESERA, YSEYPECCVDVKPIPQEKIESERA is higher in protein stability index: 3.98 for the first, 4.38 for the second.

Compared with YSEYPECCVDVKPIYQEKIESERA, YSEYPECCVDVKPITQEKIESERA is lower in protein stability index: 4.18 for the first, 3.85 for the second.

Going from YSEYPECCVDVKPIIQEKIESERA to YSEYPECCVDVKPIGQEKIESERA, the protein stability index rises from 3.82 to 4.45.

Compared with YSEYPECCVDVKPIVQEKIESERA, YSEYPECCVDVKPIDQEKIESERA is higher in protein stability index: 3.96 for the first, 4.81 for the second.

Going from YSEYPECCVDVKPIAQEKIESERA to YSEYPECCVDVKPIFQEKIESERA, the protein stability index falls from 4.16 to 3.64.

First: YSEYPECCVDVKPICQEKIESERA
Second: YSEYPECCVDVKPIEQEKIESERA
The protein stability index of the first is lower: 4.14 for the first, 4.18 for the second.

Going from YSEYPECCVDVKPIHQEKIESERA to YSEYPECCVDVKPIKQEKIESERA, the protein stability index falls from 4.47 to 3.68.

First: YSEYPECCVDVKPIQQEKIESERA
Second: YSEYPECCVDVKPIRQEKIESERA
The protein stability index of the first is lower: 4.05 for the first, 4.09 for the second.

Going from YSEYPECCVDVKPILQEKIESERA to YSEYPECCQDVKPISQEKIESERA, the protein stability index rises from 3.68 to 4.47.

First: YSEYPECCGDVKPISQEKIESERA
Second: YSEYPECCPDVKPISQEKIESERA
The protein stability index of the first is higher: 4.4 for the first, 4.24 for the second.

Going from YSEYPECCFDVKPISQEKIESERA to YSEYPECCHDVKPISQEKIESERA, the protein stability index rises from 3.76 to 4.39.

First: YSEYPECCTDVKPISQEKIESERA
Second: YSEYPECCSDVKPISQEKIESERA
The protein stability index of the first is lower: 4.4 for the first, 4.93 for the second.

Going from YSEYPECCNDVKPISQEKIESERA to YSEYPECCDDVKPISQEKIESERA, the protein stability index falls from 5.56 to 4.12.

Going from YSEYPECCEDVKPISQEKIESERA to YSEYPECCIDVKPISQEKIESERA, the protein stability index falls from 5.56 to 4.35.

Going from YSEYPECCKDVKPISQEKIESERA to YSEYPECCWDVKPISQEKIESERA, the protein stability index falls from 4.53 to 3.39.

Compared with YSEYPECCMDVKPISQEKIESERA, YSEYPECCRDVKPISQEKIESERA is lower in protein stability index: 3.77 for the first, 2.94 for the second.

Compared with YSEYPECCYDVKPISQEKIESERA, YSEYPECCADVKPISQEKIESERA is higher in protein stability index: 4.04 for the first, 4.26 for the second.

First: YSEYPECCCDVKPISQEKIESERA
Second: YSEYPECCLDVKPISQEKIESERA
The protein stability index of the first is lower: 4.12 for the first, 4.7 for the second.

Going from YSEYPECCVDVQPISQEKIESERA to YSEYPECCVDVSPISQEKIESERA, the protein stability index falls from 4.77 to 3.02.

First: YSEYPECCVDVMPISQEKIESERA
Second: YSEYPECCVDVFPISQEKIESERA
The protein stability index of the first is higher: 4.18 for the first, 3.83 for the second.

First: YSEYPECCVDVIPISQEKIESERA
Second: YSEYPECCVDVPPISQEKIESERA
The protein stability index of the first is lower: 3.72 for the first, 4.32 for the second.

Compared with YSEYPECCVDVAPISQEKIESERA, YSEYPECCVDVHPISQEKIESERA is higher in protein stability index: 4.47 for the first, 4.95 for the second.

First: YSEYPECCVDVWPISQEKIESERA
Second: YSEYPECCVDVVPISQEKIESERA
The protein stability index of the first is lower: 3.26 for the first, 4.14 for the second.

Going from YSEYPECCVDVDPISQEKIESERA to YSEYPECCVDVCPISQEKIESERA, the protein stability index falls from 4.46 to 3.96.

First: YSEYPECCVDVNPISQEKIESERA
Second: YSEYPECCVDVRPISQEKIESERA
The protein stability index of the first is lower: 4.07 for the first, 4.25 for the second.

First: YSEYPECCVDVTPISQEKIESERA
Second: YSEYPECCVDFKPISQEKIESERA
The protein stability index of the first is higher: 4.07 for the first, 3.53 for the second.

Going from YSEYPECCVDNKPISQEKIESERA to YSEYPECCVDMKPISQEKIESERA, the protein stability index falls from 4.51 to 4.09.

First: YSEYPECCVDSKPISQEKIESERA
Second: YSEYPECCVDLKPISQEKIESERA
The protein stability index of the first is higher: 4.24 for the first, 3.84 for the second.

Going from YSEYPECCVDWKPISQEKIESERA to YSEYPECCVDDKPISQEKIESERA, the protein stability index rises from 4.09 to 5.42.

First: YSEYPECCVDKKPISQEKIESERA
Second: YSEYPECCVDYKPISQEKIESERA
The protein stability index of the first is higher: 4.17 for the first, 3.4 for the second.

Going from YSEYPECCVDCKPISQEKIESERA to YSEYPECCVDTKPISQEKIESERA, the protein stability index rises from 3.38 to 3.95.

First: YSEYPECCVDRKPISQEKIESERA
Second: YSEYPECCVDEKPISQEKIESERA
The protein stability index of the first is lower: 3.45 for the first, 4.25 for the second.

Compared with YSEYPECCVDPKPISQEKIESERA, YSEYPECCVDQKPISQEKIESERA is higher in protein stability index: 3.61 for the first, 5 for the second.

First: YSEYPECCVDAKPISQEKIESERA
Second: YSEYPECCVYVKPISQEKIESERA
The protein stability index of the first is higher: 4.23 for the first, 3.04 for the second.

First: YSEYPECCVLVKPISQEKIESERA
Second: YSEYPECCVAVKPISQEKIESERA
The protein stability index of the first is lower: 2.98 for the first, 3.56 for the second.

Going from YSEYPECCVKVKPISQEKIESERA to YSEYPECCVRVKPISQEKIESERA, the protein stability index falls from 3.71 to 2.84.

Compared with YSEYPECCVSVKPISQEKIESERA, YSEYPECCVHVKPISQEKIESERA is lower in protein stability index: 3.88 for the first, 3.15 for the second.

Compared with YSEYPECCVNVKPISQEKIESERA, YSEYPECCVIVKPISQEKIESERA is higher in protein stability index: 2.18 for the first, 2.6 for the second.

Going from YSEYPECCVWVKPISQEKIESERA to YSEYPECCVMVKPISQEKIESERA, the protein stability index rises from 1.74 to 2.91.

First: YSEYPECCVTVKPISQEKIESERA
Second: YSEYPECCVPVKPISQEKIESERA
The protein stability index of the first is lower: 2.85 for the first, 3.96 for the second.
